Data published in US9676849B2, “Enhancement of transport of therapeutic molecules across the blood brain barrier” (Biogen Idec MA Inc., priority 2012, dated 2017).

Experiments:
mu pain receptors = target: T1, mu pain receptors (Rattus norvegicus, UniProt P33535); assay: Hargreaves model of thermal pain, Dalargin alone or linked; format: in vivo; details: for Fold potency compared to FC5-Dal in Hargreaves model: IV, based on molar ratio of Dalargin injected
T1 construct: from tissue; host or cells: rat brain (periaqueductal region), in vivo
T1 sequence (P33535 whole entry): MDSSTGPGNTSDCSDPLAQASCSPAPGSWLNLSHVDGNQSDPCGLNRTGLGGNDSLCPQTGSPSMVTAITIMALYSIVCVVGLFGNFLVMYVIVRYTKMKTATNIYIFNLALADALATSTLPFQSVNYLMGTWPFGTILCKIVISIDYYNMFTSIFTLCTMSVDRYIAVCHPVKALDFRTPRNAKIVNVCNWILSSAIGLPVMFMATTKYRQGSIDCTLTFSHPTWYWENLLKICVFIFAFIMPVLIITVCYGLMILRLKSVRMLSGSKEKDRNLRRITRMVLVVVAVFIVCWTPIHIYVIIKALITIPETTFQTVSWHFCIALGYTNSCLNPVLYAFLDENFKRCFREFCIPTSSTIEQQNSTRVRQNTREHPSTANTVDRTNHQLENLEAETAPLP
Description: The Hargreaves model measures increased sensitivity to thermal pain induced by injection of Freud's adjuvant in a paw. The thermal pain can be suppressed upon binding of a six amino acid peptide Dalargin to the mu pain receptors expressed in the peri-aquaductal portion of the brain. […] Thus intravenously injected Dalargin must be linked to a receptor mediated transporter to allow cross BBB transport and suppression of pain. To evaluate the transport of Dalargin mediated by FC5 containing molecules across the BBB the Hargreaves animal model was used to compare the potency of various molecular forms of FC5 Vhh linked to Dalargin. The negative control molecule for FC5-Dalargin was EG2-Dalargin and for FC5-Fc-Dalargin was Fc-FC5-Dalargin.
Prior to intravenous (IV) injection each molecule was initially tested by intracerebroventricular (ICV) injection as a positive control to insure all linked molecules are functionally active and able to induce pain suppression. Both negative control and positive test molecules would be expected to suppress pain upon ICV injection as the molecules are injected directly into the cerebral spinal fluid and are able to diffuse to and block the periacquiductal mu pain receptors. […] Next each Dalargin labeled molecule and corresponding Dalargin labeled control protein were evaluated for efficacy upon IV administration. Initially, the efficacy of FC5-Dal versus the control (EG2-Dal) was compared. […] It is interesting to note that three doses of FC5-Dal at 7.5 mg per kg (mpk) per dose as needed prior to observing the initial pain suppression.
Chronic pain suppression is expressed as the percentage of maximum possible effect (% MPE). The value is based on the area under the curve for pain suppressed animal relative to the contralateral control paw over the time frame of measurement. The efficacy of molecules injected either ICV or IV is shown as a percent of maximum possible effect (% MPE) in the Hargreaves model. […] Dose in mpk for intravenous (IV) dosing values are indicated as per injection followed by the number of injections.

SV-ARBEC = assay: Fluorescent flow cytometry binding to SV40 transformed rat BBB endothelial cells; details: SV40 transformed cell line vs primary cells
Method: (§1) The binding affinity of each molecule was evaluated in separate Fluorescent Flow Cytometry assay using freshly isolated rat BBB endothelial cells, SV40 transformed rat BBB endothelial cells (Caram-Salas, N., Boileau, E., Farrington, G. K., Garber, E., Brunette, E., Abulrob, A., and Stanimirovic, D. Methods in molecular biology 763, ed. 2010, 383-401) and to Hek293 cells transiently transfected with the previously identified target TMEM30A.

[1] = Circulating pharmacokinetics of FC5 containing molecules in rats; format: in vivo; details: rat, intraperitoneal 3 mpk; for Beta-phase half life (h), assay format Fluorescence: AL680 labeled molecules, fluorescence from sera
Method: To understand the exposure of the BBB endothelium to each of the FC5 containing antibodies the pharmacokinetics the molecules were determined in rats. Animals were dosed intraperitoneally at 3 mpk with either the FC5 Vhh N-terminally (FC5-Fc) or C-terminally (Fc-FC5) fused to a human Fc domain. Concentrations of FC5-Fc or Fc-FC5 in the plasma were determined at various time points by ELISA. The results were analyzed to determine the beta-phase half-lives of each construct (Table II).
Half-life was determined by ELISA detection of the human Fc from rat serum or with AL680 labeled molecules and the fluorescence determined from the sera. No difference was observed between molecules in which the half-life was determined by fluorescence versus ELISA. Molecules were injected intraperitoneal at 3 mpk.

[2] = test system: immortalized adult rat brain endothelial cells (SV-ARBEC); assay: In vitro transport rate across BBB endothelial cell monolayer; format: in vitro ADME; details: compared with control antibodies 12F6A, CRL2434 and C37H; FIG. 3
Description: We used an in vitro BBB endothelial cell layer to model in vivo cross BBB flux rates for each FC5 containing protein. The in vitro model uses a monolayer of immortalized adult rat brain endothelial cells (SV-ARBEC) in a monolayer assay system validated for tightness with small molecules (Garberg, P., Ball, M., Borg, N., Cecchelli, R., Fenart, L., Hurst, R. D., Lindmark, T., Mabondzo, A., Nilsson, J. E., Raub, T. J., Stanimirovic, D., Terasaki, T., Oberg, J. O., and Osterberg, T. (2005) Toxicol In Vitro 19(3), 299-334). The methods for the in vitro flux rate determinations are nearly identical to those described in (Caram-Salas, N., Boileau, E., Farrington, G. K., Garber, E., Brunette, E., Abulrob, A., and Stanimirovic, D. Methods in molecular biology 763, ed. 2010, 383-401).

Primary rat BBB EC = assay: Fluorescent flow cytometry binding to primary rat BBB endothelial cells; details: read-out: Affinity (nM), Primary rat BBB EC
Method: as §1

Molecule | Fold potency compared to FC5-Dal in Hargreaves model (mu pain receptors) | average % MPE after the first 0.5 h (mu pain receptors; rat, single IV dose 0.5 mpk) | fold weaker binding than to primary rat BBB endothelial cells (SV-ARBEC) | half-life when fused to a human Fc compared with FC5 Vhh alone [1] | Beta-phase half life (h), assay format Fluorescence [1] | Beta-phase half life (h), assay format ELISA ([1]; ELISA detection of human Fc from rat serum) | rate of transport across in vitro SV40 rat BBB transformed endothelial cell line [2] | Kd (Primary rat BBB EC)
FC5-Fc | 80 fold | 50 % MPE | about 7 fold | significantly longer | 39.4 h | 35.7 h | increased rate of transport | 
Fc-FC5 | <0.1 fold |  |  | significantly longer | 38.6 h |  | increased rate of transport | 
FC5: llama single domain VHH antibody binding TMEM30A, SEQ ID NO: 10, with myc and His tags (protein, myc and His tags) VHH: EVQLQASGGGLVQAGGSLRLSCAASGFKITHYTMGWFRQAPGKEREFVSRITWGGDNTFYSNSVKGRFTISRDNAKNTVYLQMNSLKPEDTADYYCAAGSTSTATPLRVDYWGKGTQVTVSS | 1 fold |  |  |  |  |  | increased rate of transport | > 2000 nM
